According to patent US20110040072A1, “MONO AND DI-SUBSTITUTED OXYCODONE COMPOUNDS AND COMPOSITIONS” (SHIRE LLC, priority 2006, published 2011):

Columns and labels:
[1] = Oral bioavailability / oral pharmacokinetics of oxycodone conjugates in rats; settings: for AUC % (Oral Bioavailability): reference = 100
[2] = background statement; cited from earlier work
[3] = Intranasal bioavailability of oxycodone conjugates in rats; settings: for AUC % (Intranasal Bioavailability): reference = 100
[4] = Intravenous bioavailability of oxycodone conjugates in rats
[5] = relative to OXY = 100, n = 4 animals, analysis by LC-MS

Compound	Oral (% AUC) [1, 5] [% AUC]	further results
CC[C@H](C)[C@H](N)C(=O)N[C@H](C(=O)N[C@H](C(=O)OC1=CC[C@@]2(O)[C@H]3Cc4ccc(OC)c5c4[C@@]2(CCN3C)[C@H]1O5)[C@@H](C)CC)[C@@H](C)CC [Ile-Ile-Ile-OC]	83	–
Val-Val-Phe-OC	120	–
Tyr-Tyr-Val-OC	124	AUC % (Oral Bioavailability) [1]: 124%
Pro-Pro-Val-OC	152	AUC % (Oral Bioavailability) [1]: 152%
COc1ccc2c3c1O[C@H]1C(OC(=O)[C@H](CC(C)C)NC(=O)[C@H](CCCCN)NC(=O)[C@@H](N)CCCCN)=CC[C@@]4(O)[C@@H](C2)N(C)CC[C@]314 [Lys-Lys-Leu-OC]	46	–
COc1ccc2c3c1O[C@H]1C(OC(=O)[C@@H]4CCCN4C(=O)[C@H](CCC(=O)O)NC(=O)[C@@H](N)CCC(=O)O)=CC[C@@]4(O)[C@@H](C2)N(C)CC[C@]314 [Glu-Glu-Pro-OC]	71	–
Tyr-Tyr-Ile-OC	85	–
COc1ccc2c3c1O[C@H]1C(=O)CC[C@@]4(O)[C@@H](C2)N(C)CC[C@]314 [OXY, oxycodone]	100	AUC % (Oral Bioavailability) [1]: 100%; Therapeutic plasma concentration [2]: 10 to 100 ng/mL; toxic plasma concentration [2]: greater than 200 ng/mL
CC[C@H](C)[C@H](NC(=O)[C@H](CCCCN)NC(=O)[C@@H](N)CCCCN)C(=O)OC1=CC[C@@]2(O)[C@H]3Cc4ccc(OC)c5c4[C@@]2(CCN3C)[C@H]1O5 [Lys-Lys-Ile-OC]	74	–
COc1ccc2c3c1O[C@H]1C(OC(=O)[C@@H](NC(=O)[C@H](C)NC(=O)[C@H](C)N)C(C)C)=CC[C@@]4(O)[C@@H](C2)N(C)CC[C@]314 [Ala-Ala-Val-OC]	85	–
COc1ccc2c3c1O[C@H]1C(OC(=O)[C@H](CC(C)C)NC(=O)[C@@H]4CCCN4C(=O)[C@@H]4CCCN4)=CC[C@@]4(OC(=O)[C@H](CC(C)C)NC(=O)[C@@H]5CCCN5C(=O)[C@@H]5CCCN5)[C@@H](C2)N(C)CC[C@]314 [[PPL]2-OC, [Pro-Pro-Leu]2-OC]	–	bioavailability by the intranasal route ([3]; versus oxycodone): substantially decreased; bioavailability by the intravenous route ([4]; versus oxycodone): substantially decreased
Phe-Phe-Ile-OC	59	–
Pro-Pro-Ile-OC	85	AUC % (Oral Bioavailability) [1]: 85%
CC[C@H](C)[C@H](NC(=O)[C@H](CCC(=O)O)NC(=O)[C@@H](N)CCC(=O)O)C(=O)OC1=CC[C@@]2(O)[C@H]3Cc4ccc(OC)c5c4[C@@]2(CCN3C)[C@H]1O5 [Glu-Glu-Ile-OC]	179	–
COc1ccc2c3c1O[C@H]1C(OC(=O)[C@H](Cc4ccccc4)NC(=O)[C@H](CCCCN)NC(=O)[C@@H](N)CCCCN)=CC[C@@]4(O)[C@@H](C2)N(C)CC[C@]314 [Lys-Lys-Phe-OC]	37	–
COc1ccc2c3c1O[C@H]1C(OC(=O)[C@@H](NC(=O)[C@H](CC(=O)O)NC(=O)[C@@H](N)CC(=O)O)C(C)C)=CC[C@@]4(O)[C@@H](C2)N(C)CC[C@]314 [Asp-Asp-Val-OC]	40	–

Compound	Oral (% AUC) [1, 5] [% AUC]	further results
Tyr-Tyr-Phe-OC	73	–
COc1ccc2c3c1O[C@H]1C(OC(=O)[C@@H](NC(=O)[C@H](CCC(=O)O)NC(=O)[C@@H](N)CCC(=O)O)C(C)C)=CC[C@@]4(O)[C@@H](C2)N(C)CC[C@]314 [Glu-Glu-Val-OC]	55	–
COc1ccc2c3c1O[C@H]1C(OC(=O)[C@H](Cc4ccccc4)NC(=O)[C@H](CCC(=O)O)NC(=O)[C@@H](N)CCC(=O)O)=CC[C@@]4(O)[C@@H](C2)N(C)CC[C@]314 [Glu-Glu-Phe-OC]	49	–
Phe-Phe-Val-OC	32	–
COc1ccc2c3c1O[C@H]1C(OC(=O)[C@@H](NC(=O)CNC(=O)[C@@H](N)CO)C(C)C)=CC[C@@]4(OC(=O)[C@@H](NC(=O)CNC(=O)[C@@H](N)CO)C(C)C)[C@@H](C2)N(C)CC[C@]314 [(SGV)2-OC, [Ser-Gly-Val]2-OC]	–	AUC % (Oral Bioavailability) [1]: 103%; AUC % (Intranasal Bioavailability) [3]: 64%; AUC % (Intravenous Bioavailability) ([4]; reference = 100): 52%
COc1ccc2c3c1O[C@H]1C(OC(=O)[C@@H](NC(=O)[C@H](CC(C)C)NC(=O)[C@@H](N)CC(C)C)C(C)C)=CC[C@@]4(O)[C@@H](C2)N(C)CC[C@]314 [Leu-Leu-Val-OC]	81	–
COc1ccc2c3c1O[C@H]1C(OC(=O)[C@@H](NC(=O)[C@H](CCC(=O)O)NC(=O)[C@@H](N)C(C)C)C(C)C)=CC[C@@]4(OC(=O)[C@@H](NC(=O)[C@H](CCC(=O)O)NC(=O)[C@@H](N)C(C)C)C(C)C)[C@@H](C2)N(C)CC[C@]314 [(VEV)2-OC, [Val-Glu-Val]2-OC]	–	AUC % (Oral Bioavailability) [1]: 104%; AUC % (Intranasal Bioavailability) [3]: 39%
COc1ccc2c3c1O[C@H]1C(OC(=O)[C@@H](NC(=O)[C@H](CCCCN)NC(=O)[C@@H](N)CCCCN)C(C)C)=CC[C@@]4(O)[C@@H](C2)N(C)CC[C@]314 [Lys-Lys-Val-OC]	108	–
CC[C@H](C)[C@H](NC(=O)CNC(=O)CN)C(=O)OC1=CC[C@@]2(O)[C@H]3Cc4ccc(OC)c5c4[C@@]2(CCN3C)[C@H]1O5 [Gly-Gly-Ile-OC]	–	Oral (% AUC) ([1]; relative to OXY = 100, dosed at 40% higher levels than calculated, n = 4 animals, LC-MS): 224 % AUC
OC-Succcinate	79	–
COc1ccc2c3c1O[C@H]1C(OC(=O)[C@H](Cc4ccccc4)NC(=O)CNC(=O)CN)=CC[C@@]4(O)[C@@H](C2)N(C)CC[C@]314 [Gly-Gly-Phe-OC]	163	–
COc1ccc2c3c1O[C@H]1C(OC(=O)[C@@H](NC(=O)CNC(=O)CN)C(C)C)=CC[C@@]4(O)[C@@H](C2)N(C)CC[C@]314 [Gly-Gly-Val-OC]	123	–
COc1ccc2c3c1O[C@H]1C(OC(=O)[C@@H](NC(=O)[C@H](CC(=O)O)NC(=O)[C@@H](N)CCC(=O)O)C(C)C)=CC[C@@]4(OC(=O)[C@@H](NC(=O)[C@H](CC(=O)O)NC(=O)[C@@H](N)CCC(=O)O)C(C)C)[C@@H](C2)N(C)CC[C@]314 [(EDV)2-OC, [Glu-Asp-Val]2-OC]	–	AUC % (Oral Bioavailability) [1]: 73%; AUC % (Intranasal Bioavailability) [3]: 20%
Tyr-Tyr-Pro-OC	59	–
COc1ccc2c3c1O[C@H]1C(OC(=O)[C@H](CC(C)C)NC(=O)[C@H](CCC(=O)O)NC(=O)[C@@H](N)CCC(=O)O)=CC[C@@]4(O)[C@@H](C2)N(C)CC[C@]314 [Glu-Glu-Leu-OC]	80	–
